From patent US20190030139A1 (MAYO FOUNDATION FOR MEDICAL EDUCATION AND RESEARCH, published 2019)
Values belong to the binder of their own block, whether it stands above or below them.

B3: LKB1 (enzyme, UniProt Q15831 1-430, looked up)
chain: MEVVDPQQLGMFTEGELMSVGMDTFIHRIDSTEVIYQPRRKRAKLIGKYLMGDLLGEGSYGKVKEVLDSETLCRRAVKILKKKKLRRIPNGEANVKKEIQLLRRLRHKNVIQLVDVLYNEEKQKMYMVMEYCVCGMQEMLDSVPEKRFPVCQAHGYFCQLIDGLEYLHSQGIVHKDIKPGNLLLTTGGTLKISDLGVAEALHPFAADDTCRTSQGSPAFQPPEIANGLDTFSGFKVDIWSAGVTLYNITTGLYPFEGDNIYKLFENIGKGSYAIPGDCGPPLSDLLKGMLEYEPAKRFSIRQIRQHSWFRKKHPPAEAPVPIPPSPDTKDRWRSMTVVPYLEDLHGADEDEDLFDIEDDIIYTQDFTVPGQVPEEEASHNGQRRGLPKAVCMNGTEAAQLSTKSRAEGRAPNPARKACSASSKIRRLSAC
notes: Cellular protein co-precipitated with FLAG-tagged AMPKα

Legend:
Purified His6-USP10 = target: T1, Purified His6-USP10 (human, UniProt Q14694 1-798); assay: GST pull-down with recombinant proteins (FIG. 3A)
T1 construct: also called His-USP10; recombinant USP10; not shown: His6 tag
Experimental: Purified His6-USP10 was incubated with the indicated GST tagged AMPK subunits coupled to GSH-Sepharose. Proteins retained on Sepharose were then blotted with the indicated antibodies. FIGS. 3B-3D are immunoblots showing the interaction of USP10 with AMPKα in cells. HCT116 cell lysates were subjected to immunoprecipitation (IP) with control IgG, anti-USP10 (FIG. 3B), anti-AMPKα1 (FIG. 3C), anti-AMPKα2 (FIG. 3D) antibodies. The immunoprecipitates were then blotted with the indicated antibodies. […] 293T cells transfected with the indicated constructs were lysed, and lysates were incubated with anti-FLAG beads. Proteins retained on beads were blotted with the indicated antibodies. […] HCT116 cells infected with lentivirus encoding the indicated shRNAs were transfected with the indicated constructs. Cell lysates and Ni-NTA pulldowns were immunoblotted as indicated. -Glu, glucose starvation. FIG. 3G is a picture of an immunoblot showing that USP10 deubiquitinase activity is required for AMPK deubiquitination. The indicated constructs were transfected into USP10 knockdown cell lines, and cells were placed in medium without glucose for 4 hours. Cell lysates were incubated with anti-HA beads and immunoblotted with the indicated antibodies. -Glu, glucose starvation. FIG. 3H is a picture of an immunoblot showing deubiquitination of AMPKα2 in vitro by USP10. Ubiquitinated AMPKα2 was incubated with purified USP10 or USP10CA in vitro, and then blotted with indicated antibodies.
Immunoprecipitation, immunoblotting, and in vitro pull-down assay—Cell lysates were prepared and immunoprecipitation and immunoblotting were performed as described elsewhere (Yuan et al., supra). In brief, cells were lysed with NETN buffer (20 mM Tris-HCl, pH 8.0, 100 mM NaCl, 1 mM EDTA, 0.5% Nonidet P-40) containing 50 mM β-glycerophosphate, 10 mM NaF, and 1 mg/ml each of pepstatin A and aprotinin.

LKB1 [1] = target: B3; assay: FLAG-bead immunoprecipitation from HCT116 lysates, LKB1 immunoblot (FIG. 6F)
[2] = target: T2, WT AMPKα1 (FLAG-tagged, expressed in HCT116 cells) (human, UniProt Q13131 1-559); assay: as above
T2 construct: Precipitated from cell lysates with FLAG beads; ubiquitinated in part in cells; also called FLAG-AMPKα; not shown: FLAG tag

[3] = target: T3, WT AMPKα2 (FLAG-tagged, expressed in HCT116 cells) (human, UniProt P54646 1-552); assay: FLAG-bead immunoprecipitation from HCT116 lysates, LKB1 immunoblot (FIG. 5G)
T3 construct: Precipitated from cell lysates with FLAG beads; ubiquitinated in part in cells; also called FLAG-AMPKα; not shown: FLAG tag

LKB1 [4] = target: B3; assay: as above

T1 sequence (Q14694 whole entry): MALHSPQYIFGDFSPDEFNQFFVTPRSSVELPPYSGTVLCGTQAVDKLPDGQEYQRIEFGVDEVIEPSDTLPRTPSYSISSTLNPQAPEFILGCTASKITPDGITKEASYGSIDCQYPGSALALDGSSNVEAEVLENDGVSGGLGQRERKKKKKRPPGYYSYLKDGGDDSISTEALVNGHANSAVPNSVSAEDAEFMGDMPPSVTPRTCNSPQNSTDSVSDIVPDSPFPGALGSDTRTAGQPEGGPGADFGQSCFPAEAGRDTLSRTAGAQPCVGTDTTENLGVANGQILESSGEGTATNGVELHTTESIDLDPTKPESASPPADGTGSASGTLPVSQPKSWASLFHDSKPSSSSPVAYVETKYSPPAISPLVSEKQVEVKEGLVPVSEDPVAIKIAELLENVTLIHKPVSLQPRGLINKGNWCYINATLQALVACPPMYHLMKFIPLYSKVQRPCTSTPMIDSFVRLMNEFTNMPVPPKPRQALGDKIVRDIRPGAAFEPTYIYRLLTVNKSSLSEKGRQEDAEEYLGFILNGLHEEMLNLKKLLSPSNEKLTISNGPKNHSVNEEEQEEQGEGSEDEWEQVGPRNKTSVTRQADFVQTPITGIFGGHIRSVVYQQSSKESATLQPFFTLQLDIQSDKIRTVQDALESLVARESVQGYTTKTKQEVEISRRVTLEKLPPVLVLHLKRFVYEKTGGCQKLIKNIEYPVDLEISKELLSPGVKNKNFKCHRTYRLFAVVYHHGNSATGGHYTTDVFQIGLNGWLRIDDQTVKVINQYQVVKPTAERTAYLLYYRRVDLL

Binder: B3
binding result [2]: binds
binding result [3]: binds

B4: AMPKα2 4KR mutant (FLAG-tagged, expressed in HCT116 cells) (enzyme)
chain: MAEKQKHDGRVKIGHYVLGDTLGVGTFGKVKIGEHQLTGHKVAVKILNRQKIRSLDVVGRIKREIQNLKLFRHPHIIKLYQVISTPTDFFMVMEYVSGGELFDYICKHGRVEEMEARRLFQQILSAVDYCHRHMVVHRDLKPENVLLDAHMNAKIADFGLSNMMSDGEFLRTSCGSPNYAAPEVISGRLYAGPEVDIWSCGVILYALLCGTLPFDDEHVPTLFKKIRGGVFYIPEYLNRSVATLLMHMLQVDPLKRATIKDIREHEWFKQDLPSYLFPEDPSYDANVIDDEAVKEVCEKFECTESEVMNSLYSGDPQDQLAVAYHLIIDNRRIMNQASEFYLASSPPSGSFMDDSAMHIPPGLKPHPERMPPLIADSPRARCPLDALNTTRPKSLAVKKAKWHLGIRSQSKPYDIMAEVYRAMKQLDFEWKVVNAYHLRVRRKNPVTGNYVKMSLQLYLVDNRSYLLDFRSIDDEVVEQRSGSSTPQRSCSAAGLHRPRSSFDSTTAESHSLSGSLTGSLTGSTLSSVSPRLGSHTMDFFEMCASLITTLAR
notes: also called quadruple K to R mutant (4KR); AMPKα 4KR mutant; not shown: FLAG tag
binding result (LKB1 [4]): binds

B5: GST tagged AMPK γ1 (other, UniProt P54619 1-331, looked up)
chain: METVISSDSSPAVENEHPQETPESNNSVYTSFMKSHRCYDLIPTSSKLVVFDTSLQVKKAFFALVTNGVRAAPLWDSKKQSFVGMLTITDFINILHRYYKSALVQIYELEEHKIETWREVYLQDSFKPLVCISPNASLFDAVSSLIRNKIHRLPVIDPESGNTLYILTHKRILKFLKLFITEFPKPEFMSKSLEELQIGTYANIAMVRTTTPVYVALGIFVQHRVSALPVVDEKGRVVDIYSKFDVINLAAEKTYNNLDVSVTKALQHRSHYFEGVLKCYLHETLETIINRLVEAEVHRLVVVDENDVVKGIVSLSDILQALVLTGGEKKP
notes: not shown: glutathione S-transferase tag of vector pGEX-4T-1
binding result (Purified His6-USP10): no binding

Continued, values first:

binding result (Purified His6-USP10): no binding
B1: GST tagged AMPK β1 (other, UniProt Q9Y478 1-270, looked up)
chain: MGNTSSERAALERHGGHKTPRRDSSGGTKDGDRPKILMDSPEDADLFHSEEIKAPEKEEFLAWQHDLEVNDKAPAQARPTVFRWTGGGKEVYLSGSFNNWSKLPLTRSHNNFVAILDLPEGEHQYKFFVDGQWTHDPSEPIVTSQLGTVNNIIQVKKTDFEVFDALMVDSQKCSDVSELSSSPPGPYHQEPYVCKPEERFRAPPILPPHLLQVILNKDTGISCDPALLPEPNHVMLNHLYALSIKDGVMVLSATHRYKKKYVTTLLYKPI
notes: as for B5

binding result (LKB1 [1]): binds
B2: AMPKα1 4KR mutant (FLAG-tagged, expressed in HCT116 cells) (enzyme)
chain: MRRLSSWRKMATAEKQKHDGRVKIGHYILGDTLGVGTFGKVKVGKHELTGHKVAVKILNRQKIRSLDVVGRIRREIQNLKLFRHPHIIKLYQVISTPSDIFMVMEYVSGGELFDYICKNGRLDEKESRRLFQQILSGVDYCHRHMVVHRDLKPENVLLDAHMNAKIADFGLSNMMSDGEFLRTSCGSPNYAAPEVISGRLYAGPEVDIWSSGVILYALLCGTLPFDDDHVPTLFKKICDGIFYTPQYLNPSVISLLKHMLQVDPMKRATIKDIREHEWFKQDLPRYLFPEDPSYSSTMIDDEALKEVCEKFECSEEEVLSCLYNRNHQDPLAVAYHLIIDNRRIMNEAKDFYLATSPPDSFLDDHHLTRPHPERVPFLVAETPRARHTLDELNPQRSKHQGVRKAKWHLGIRSQSRPNDIMAEVCRAIKQLDYEWKVVNPYYLRVRRKNPVTSTYSKMSLQLYQVDSRTYLLDFRSIDDEITEARSGTATPQRSGSVSNYRSCQRSDSDAEAQGKSSEVSLTSSVTSLDSSPVDLTPRPGSHTIEFFEMCANLIKILAQ
notes: also called 4KR AMPKα1; AMPKα 4KR mutant; not shown: FLAG tag

binding result (Purified His6-USP10): no binding
B6: GST tagged AMPK β2 (other, UniProt O43741 1-272, looked up)
chain: MGNTTSDRVSGERHGAKAARSEGAGGHAPGKEHKIMVGSTDDPSVFSLPDSKLPGDKEFVSWQQDLEDSVKPTQQARPTVIRWSEGGKEVFISGSFNNWSTKIPLIKSHNDFVAILDLPEGEHQYKFFVDGQWVHDPSEPVVTSQLGTINNLIHVKKSDFEVFDALKLDSMESSETSCRDLSSSPPGPYGQEMYAFRSEERFKSPPILPPHLLQVILNKDTNISCDPALLPEPNHVMLNHLYALSIKDSVMVLSATHRYKKKYVTTLLYKPI
notes: as for B5
